Laboratory results as given in the RNAGym collection of RNA variant scans (doi:10.1021/acssynbio.7b00057).

B1: Pistol ribozyme (parent)
chain: GGGUCGUUGUUCCAUAAUCGCGUGGAUAUGGCACGCAAGUUUCUACCGGGCACCGUAAAUGUCCGACUGGAGCCGUUCGGGCGGCUAUAAACAGACCUCAGGCCCGAAGCGUGGCGGCACCUGCCGCCGGUGGUAAAAAAGAUCGGAAGAGCACACGUCU

Variants of: B1
Test: aptazyme ON/OFF ratio, guanine; higher = stronger switching; co-transcriptional cleavage with and without guanine

| Variant | aptazyme ON/OFF ratio |
| --- | --- |
| GGGUCGGUCCAAAAUAAUCGCGUGGAUAUGGCACGCAAGUUUCUACCGGGCACCGUAAAUGUCCGACUGGAGCCGUUCGGGCGGCUAUAAACAGACCUCAGGCCCGAAGCGUGGCGGCACCUGCCGCCGGUGGUAAAAAAGAUCGGAAGAGCACACGUCU | 1.21 |
| GGGUCGGUCCAAUAUAAUCGCGUGGAUAUGGCACGCAAGUUUCUACCGGGCACCGUAAAUGUCCGACUGGAGCCGUUCGGGCGGCUAUAAACAGACCUCAGGCCCGAAGCGUGGCGGCACCUGCCGCCGGUGGUAAAAAAGAUCGGAAGAGCACACGUCU | 1.25 |
| GGGUCGGUCCAAGAUAAUCGCGUGGAUAUGGCACGCAAGUUUCUACCGGGCACCGUAAAUGUCCGACUGGAGCCGUUCGGGCGGCUAUAAACAGACCUCAGGCCCGAAGCGUGGCGGCACCUGCCGCCGGUGGUAAAAAAGAUCGGAAGAGCACACGUCU | 1.15 |
| GGGUCGGUCCCUAAUAAUCGCGUGGAUAUGGCACGCAAGUUUCUACCGGGCACCGUAAAUGUCCGACUGGAGCCGUUCGGGCGGCUAUAAACAGACCUCAGGCCCGAAGCGUGGCGGCACCUGCCGCCGGUGGUAAAAAAGAUCGGAAGAGCACACGUCU | 1.03 |
| GGGUCGGUCCCUUAUAAUCGCGUGGAUAUGGCACGCAAGUUUCUACCGGGCACCGUAAAUGUCCGACUGGAGCCGUUCGGGCGGCUAUAAACAGACCUCAGGCCCGAAGCGUGGCGGCACCUGCCGCCGGUGGUAAAAAAGAUCGGAAGAGCACACGUCU | 1.11 |
| GGGUCGGUCCCUGAUAAUCGCGUGGAUAUGGCACGCAAGUUUCUACCGGGCACCGUAAAUGUCCGACUGGAGCCGUUCGGGCGGCUAUAAACAGACCUCAGGCCCGAAGCGUGGCGGCACCUGCCGCCGGUGGUAAAAAAGAUCGGAAGAGCACACGUCU | 1.07 |
| GGGUCGGUCCGAAAUAAUCGCGUGGAUAUGGCACGCAAGUUUCUACCGGGCACCGUAAAUGUCCGACUGGAGCCGUUCGGGCGGCUAUAAACAGACCUCAGGCCCGAAGCGUGGCGGCACCUGCCGCCGGUGGUAAAAAAGAUCGGAAGAGCACACGUCU | 1.09 |
| GGGUCGGUCCUCUAUAAUCGCGUGGAUAUGGCACGCAAGUUUCUACCGGGCACCGUAAAUGUCCGACUGGAGCCGUUCGGGCGGCUAUAAACAGACCUCAGGCCCGAAGCGUGGCGGCACCUGCCGCCGGUGGUAAAAAAGAUCGGAAGAGCACACGUCU | 1.47 |
| GGGUCGGUCCCCGAUAAUCGCGUGGAUAUGGCACGCAAGUUUCUACCGGGCACCGUAAAUGUCCGACUGGAGCCGUUCGGGCGGCUAUAAACAGACCUCAGGCCCGAAGCGUGGCGGCACCUGCCGCCGGUGGUAAAAAAGAUCGGAAGAGCACACGUCU | 1.04 |
| GGGUCGGUCCCCUAUAAUCGCGUGGAUAUGGCACGCAAGUUUCUACCGGGCACCGUAAAUGUCCGACUGGAGCCGUUCGGGCGGCUAUAAACAGACCUCAGGCCCGAAGCGUGGCGGCACCUGCCGCCGGUGGUAAAAAAGAUCGGAAGAGCACACGUCU | 1.03 |
| GGGUCGGUCCCCAAUAAUCGCGUGGAUAUGGCACGCAAGUUUCUACCGGGCACCGUAAAUGUCCGACUGGAGCCGUUCGGGCGGCUAUAAACAGACCUCAGGCCCGAAGCGUGGCGGCACCUGCCGCCGGUGGUAAAAAAGAUCGGAAGAGCACACGUCU | 1.05 |
| GGGUCGGUCCCACAUAAUCGCGUGGAUAUGGCACGCAAGUUUCUACCGGGCACCGUAAAUGUCCGACUGGAGCCGUUCGGGCGGCUAUAAACAGACCUCAGGCCCGAAGCGUGGCGGCACCUGCCGCCGGUGGUAAAAAAGAUCGGAAGAGCACACGUCU | 1.03 |
| GGGUCGGUCCCGCAUAAUCGCGUGGAUAUGGCACGCAAGUUUCUACCGGGCACCGUAAAUGUCCGACUGGAGCCGUUCGGGCGGCUAUAAACAGACCUCAGGCCCGAAGCGUGGCGGCACCUGCCGCCGGUGGUAAAAAAGAUCGGAAGAGCACACGUCU | 1.14 |
| GGGUCGGUCCCUCAUAAUCGCGUGGAUAUGGCACGCAAGUUUCUACCGGGCACCGUAAAUGUCCGACUGGAGCCGUUCGGGCGGCUAUAAACAGACCUCAGGCCCGAAGCGUGGCGGCACCUGCCGCCGGUGGUAAAAAAGAUCGGAAGAGCACACGUCU | 1.06 |
| GGGUCGGUCCAACAUAAUCGCGUGGAUAUGGCACGCAAGUUUCUACCGGGCACCGUAAAUGUCCGACUGGAGCCGUUCGGGCGGCUAUAAACAGACCUCAGGCCCGAAGCGUGGCGGCACCUGCCGCCGGUGGUAAAAAAGAUCGGAAGAGCACACGUCU | 1.46 |
| GGGUCGGUCCAGCAUAAUCGCGUGGAUAUGGCACGCAAGUUUCUACCGGGCACCGUAAAUGUCCGACUGGAGCCGUUCGGGCGGCUAUAAACAGACCUCAGGCCCGAAGCGUGGCGGCACCUGCCGCCGGUGGUAAAAAAGAUCGGAAGAGCACACGUCU | 1.31 |
| GGGUCGGUCCAUCAUAAUCGCGUGGAUAUGGCACGCAAGUUUCUACCGGGCACCGUAAAUGUCCGACUGGAGCCGUUCGGGCGGCUAUAAACAGACCUCAGGCCCGAAGCGUGGCGGCACCUGCCGCCGGUGGUAAAAAAGAUCGGAAGAGCACACGUCU | 1.4 |
| GGGUCGGUCCCCCAUAAUCGCGUGGAUAUGGCACGCAAGUUUCUACCGGGCACCGUAAAUGUCCGACUGGAGCCGUUCGGGCGGCUAUAAACAGACCUCAGGCCCGAAGCGUGGCGGCACCUGCCGCCGGUGGUAAAAAAGAUCGGAAGAGCACACGUCU | 1.17 |

| Variant | aptazyme ON/OFF ratio |
| --- | --- |
| GGGUCGGUCCGCCAUAAUCGCGUGGAUAUGGCACGCAAGUUUCUACCGGGCACCGUAAAUGUCCGACUGGAGCCGUUCGGGCGGCUAUAAACAGACCUCAGGCCCGAAGCGUGGCGGCACCUGCCGCCGGUGGUAAAAAAGAUCGGAAGAGCACACGUCU | 1.18 |
| GGGUCGGUCCACCAUAAUCGCGUGGAUAUGGCACGCAAGUUUCUACCGGGCACCGUAAAUGUCCGACUGGAGCCGUUCGGGCGGCUAUAAACAGACCUCAGGCCCGAAGCGUGGCGGCACCUGCCGCCGGUGGUAAAAAAGAUCGGAAGAGCACACGUCU | 1.65 |
| GGGUCGGUCCAGAAUAAUCGCGUGGAUAUGGCACGCAAGUUUCUACCGGGCACCGUAAAUGUCCGACUGGAGCCGUUCGGGCGGCUAUAAACAGACCUCAGGCCCGAAGCGUGGCGGCACCUGCCGCCGGUGGUAAAAAAGAUCGGAAGAGCACACGUCU | 1.13 |
| GGGUCGGUCCAGGAUAAUCGCGUGGAUAUGGCACGCAAGUUUCUACCGGGCACCGUAAAUGUCCGACUGGAGCCGUUCGGGCGGCUAUAAACAGACCUCAGGCCCGAAGCGUGGCGGCACCUGCCGCCGGUGGUAAAAAAGAUCGGAAGAGCACACGUCU | 1.2 |
| GGGUCGGUCCAGUAUAAUCGCGUGGAUAUGGCACGCAAGUUUCUACCGGGCACCGUAAAUGUCCGACUGGAGCCGUUCGGGCGGCUAUAAACAGACCUCAGGCCCGAAGCGUGGCGGCACCUGCCGCCGGUGGUAAAAAAGAUCGGAAGAGCACACGUCU | 1.31 |
| GGGUCGGUCCACAAUAAUCGCGUGGAUAUGGCACGCAAGUUUCUACCGGGCACCGUAAAUGUCCGACUGGAGCCGUUCGGGCGGCUAUAAACAGACCUCAGGCCCGAAGCGUGGCGGCACCUGCCGCCGGUGGUAAAAAAGAUCGGAAGAGCACACGUCU | 1.24 |
| GGGUCGGUCCACGAUAAUCGCGUGGAUAUGGCACGCAAGUUUCUACCGGGCACCGUAAAUGUCCGACUGGAGCCGUUCGGGCGGCUAUAAACAGACCUCAGGCCCGAAGCGUGGCGGCACCUGCCGCCGGUGGUAAAAAAGAUCGGAAGAGCACACGUCU | 1.22 |
| GGGUCGGUCCACUAUAAUCGCGUGGAUAUGGCACGCAAGUUUCUACCGGGCACCGUAAAUGUCCGACUGGAGCCGUUCGGGCGGCUAUAAACAGACCUCAGGCCCGAAGCGUGGCGGCACCUGCCGCCGGUGGUAAAAAAGAUCGGAAGAGCACACGUCU | 1.25 |
| GGGUCGGUCCGACAUAAUCGCGUGGAUAUGGCACGCAAGUUUCUACCGGGCACCGUAAAUGUCCGACUGGAGCCGUUCGGGCGGCUAUAAACAGACCUCAGGCCCGAAGCGUGGCGGCACCUGCCGCCGGUGGUAAAAAAGAUCGGAAGAGCACACGUCU | 1.14 |
| GGGUCGGUCCAUGAUAAUCGCGUGGAUAUGGCACGCAAGUUUCUACCGGGCACCGUAAAUGUCCGACUGGAGCCGUUCGGGCGGCUAUAAACAGACCUCAGGCCCGAAGCGUGGCGGCACCUGCCGCCGGUGGUAAAAAAGAUCGGAAGAGCACACGUCU | 1.21 |
| GGGUCGGUCCAUAAUAAUCGCGUGGAUAUGGCACGCAAGUUUCUACCGGGCACCGUAAAUGUCCGACUGGAGCCGUUCGGGCGGCUAUAAACAGACCUCAGGCCCGAAGCGUGGCGGCACCUGCCGCCGGUGGUAAAAAAGAUCGGAAGAGCACACGUCU | 1.18 |
| GGGUCGGUCCAUUAUAAUCGCGUGGAUAUGGCACGCAAGUUUCUACCGGGCACCGUAAAUGUCCGACUGGAGCCGUUCGGGCGGCUAUAAACAGACCUCAGGCCCGAAGCGUGGCGGCACCUGCCGCCGGUGGUAAAAAAGAUCGGAAGAGCACACGUCU | 1.32 |
| GGGUCGGUCCCGGAUAAUCGCGUGGAUAUGGCACGCAAGUUUCUACCGGGCACCGUAAAUGUCCGACUGGAGCCGUUCGGGCGGCUAUAAACAGACCUCAGGCCCGAAGCGUGGCGGCACCUGCCGCCGGUGGUAAAAAAGAUCGGAAGAGCACACGUCU | 1.05 |
| GGGUCGGUCCCGUAUAAUCGCGUGGAUAUGGCACGCAAGUUUCUACCGGGCACCGUAAAUGUCCGACUGGAGCCGUUCGGGCGGCUAUAAACAGACCUCAGGCCCGAAGCGUGGCGGCACCUGCCGCCGGUGGUAAAAAAGAUCGGAAGAGCACACGUCU | 1.06 |
| GGGUCGGUCCCGAAUAAUCGCGUGGAUAUGGCACGCAAGUUUCUACCGGGCACCGUAAAUGUCCGACUGGAGCCGUUCGGGCGGCUAUAAACAGACCUCAGGCCCGAAGCGUGGCGGCACCUGCCGCCGGUGGUAAAAAAGAUCGGAAGAGCACACGUCU | 1.08 |
| GGGUCGGUCCCAAAUAAUCGCGUGGAUAUGGCACGCAAGUUUCUACCGGGCACCGUAAAUGUCCGACUGGAGCCGUUCGGGCGGCUAUAAACAGACCUCAGGCCCGAAGCGUGGCGGCACCUGCCGCCGGUGGUAAAAAAGAUCGGAAGAGCACACGUCU | 1.02 |
| GGGUCGGUCCCAUAUAAUCGCGUGGAUAUGGCACGCAAGUUUCUACCGGGCACCGUAAAUGUCCGACUGGAGCCGUUCGGGCGGCUAUAAACAGACCUCAGGCCCGAAGCGUGGCGGCACCUGCCGCCGGUGGUAAAAAAGAUCGGAAGAGCACACGUCU | 1.03 |
| GGGUCGGUCCCAGAUAAUCGCGUGGAUAUGGCACGCAAGUUUCUACCGGGCACCGUAAAUGUCCGACUGGAGCCGUUCGGGCGGCUAUAAACAGACCUCAGGCCCGAAGCGUGGCGGCACCUGCCGCCGGUGGUAAAAAAGAUCGGAAGAGCACACGUCU | 1.09 |
